Experiment: yeast display, Sf9 membrane polyspecificity reagent, FACS + sequencing; frameworks hold sequencing errors
Method in brief: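 Synthetic nanobody libraries on Saccharomyces cerevisiae BJ5465 were galactose-induced for 36–48 hours, stained 1 hour at 4 °C with 10% biotinylated, detergent-solubilized Sf9 membrane reagent and enriched on streptavidin microbeads. FACS then separated cells into low and high (top ~1%) gates by anti-HA (expression) and streptavidin (reagent binding) fluorescence. Genes were colony-PCR amplified, MiSeq 2 × 250 sequenced and CDR-length filtered. A clone's polyreactivity label is that of its gate of origin.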

Sequence	polyreactivity (PSR sort gate)
QVQLVESGGGLVQAGGSLRLSCAASGRTFLYYAMGWYRQAPGKERELVAAISTGSSTYYADSVKGRFTISRDNAKNTVYLQMNSLKPEDTAVYYCAAGSIVGYPGFSTDDYWGQGTQVTVSS	low polyreactivity
QVQLVESGGGLVQAGGSLRLRCAASGRTFDGYAMGWYRQAHGKERELVAAISKRGGSTYYADSVKGRCTISRDNAKNSVYFQMNSLKPEDTAVYYCNKRYFGDQTWVGGDSWGQGTQVTVSS	high polyreactivity
QVQLVESGGGLVQAGGSLRLSCAASGRIFASNAMGWYRQAPGKERELVAAISRTGGTTYYADSVKGRFTISRDNAKNTVYLQMNSLKPEDTAVYYCNAVKAPYLRYDYWGQGTQVTVSS	high polyreactivity
QVQLVESGGGLVQAGGSLRLSCAASGGTFIVYAMGWYRQAPGKERELVAAITYSGGSTYYADSVKGRFTISRDNAKNTVYLQMNSLKPEVTAVYYCAARPFVSSWLQYAEGGDYWGQGTQVTVSS	low polyreactivity
QVQLVESGGGLVQAGGSLSLICAASGLIFKYNDMGWYRQAPGKERELVAAISTSGGSTYYADSVKGRFTISRDNAKNTVYLQMNSLKPEDTAVYYCNARRQRNKSYNYWGQGTQVTVSS	high polyreactivity
QVQLVESGGGLVQAGGSLRVSCAASGFTFYVNAMGRYRQAPGKERELVAVISPSGGRTYYADSVKGRFTISRDNAKNTVYLQMNSLKPEDTAVYYCAAESGGYHWSTPYFDWLYYYWGQGTQVTVSS	low polyreactivity
QVQLVESGGGIVQAGGSLRLSCAASGRIIYNYGLGWYRQAPGKERELVARITTGGRTNYADSVKGRFTISRDNAKNTVYVQMNSLKPEDTAVYFCNAVGYHSRWYYYNYDYWGQGTQVTVSS	low polyreactivity
QVQLVESGGGLVQAGGSLRLSCAASGRTFSEYAMGWYRQAPGKERELVAAITENGGSTYYADSVKGRFTISRDNAKNTVYLQMNSLKPEDTAVYYCAAETWADWYSEFYWGQGTQVTVSS	high polyreactivity
QVQLVESGGGIVQAGGRLRLSCDASGSTFSRYTMGWYRQAPGKEREFVAAIRTSGGRTYEDSVKGRFTISRDNAKNTVYVQMNSLKPEDTAVYYCAATRYYGYNTKYEYWGQGTQVTVSS	high polyreactivity
QVHLVESGGGLVQAGGSLRLSCAASGRTFGYYAMGWYRHAPGKERELVAAISRSAATTYYADSVKGRFSISRDNAKNTVYLQMYSLKPDDTAVYYCAAGGRTYAPCDYGYWGQGTQVTVSS	high polyreactivity
QVQLVESGGGLVQAGGSLRLSCAASGSIFTVNAMGWYRQAPGKERELVARISWSGGSTYYADSVKGRFTISRDNAKNTVYLQMNSLKPEDTAVYYCAKGFYEGVPSYGYDYWGQGTQVTVSS	low polyreactivity
QVQLVESGGGLVQAGGSLRLSCAASGIIFGRYTMGWYRQAPGKERELVAAITSSGITYYADSVKGRFTISRDNAKNTVYLQMNSLKPEDSAVYYCNADYSIPGYYWPYDYWGQGTQVTVSS	low polyreactivity
QVQLVESWGGLVQAGGSLRLSCAASGSIFRPYAMGWYRQAPGKERELVAAISSSGGSTYYADSVKGRFTISRDNAKNTVYLQMNSLKPEDTAVYYCAAESRSTWIHSRDYWGQGTQVTVSS	low polyreactivity
QVQRVESGGGLVQAGGSLRLSCAASRSIVNIYAMGWDRPAPGKERELVATITGIADSTYYADSVKGRFTISRDNAKNTVYLQMNSLKPEDTAVYYCAIYVSWPLYYYWGHGTQVTVSS	low polyreactivity
QVKLVESCGGLVQAGGSLRLSCAASGFIFRNYAMGWYRQARGKERELVAAIDYSVGSTNYADSVKWRFTISRDNAKNTVYLQMNSLKPEDTAVYYCNAEYTWHRGYDYFGQGTQVTVSS	low polyreactivity
QVQLVESGGGLVQAGGSLRLSCAASGRTFYSYAMGWYRQAPGKERELVAAISYTGASTFYADSVKGRFTISRDNAKNTVYLQMNSLKPEDTAVYYCAGRKVRFGVDYWGQGTQVTVSS	high polyreactivity
QVQLVESGGGLVQAGGSLRLSCAASGIIFYPNAMGWYRQAPGKERELVAAITGSGGSTYYADSVKGRFTISRDNAKNTVYLQMNSLKPEDTAVYYCNARVYWYYPMDYWGQGTQVTVSS	low polyreactivity
